# Read-outs that look alike come from different tables or passages of the source.
# How the values were obtained:
# [1] = test system: Pseudomonas aeruginosa strain CFS-1292 (meropenem resistant); conditions: for Fold Increase (MIC) in presence of cations: CFS-1292; for MIC in 25% CAA: strain CFS-1292, no added cations
# Experimental: The activity of selected GN lysins and constructs in the presence of divalent cations was evaluated, and the impact of divalent cations at physiological concentrations was examined in the MIC assay format.
# [2] = test system: P. aeruginosa isolate CFS-1292; experiment: MIC in CAA supplemented with a range of […] concentrations (Table 10); assay type: cell-based, Pseudomonas aeruginosa
# [3] = test system: carbepenam-resistant clinical isolate WC-453; experiment: MIC in CAA without or with 25% human serum (Table 5); assay type: cell-based, Pseudomonas aeruginosa
# Experimental: MIC values were determined using a modification of the standard broth microdilution reference method defined by the Clinical and Laboratory Standards Institute (CLSI), CLSI. […] Methods for Dilution Antimicrobial Susceptibility Tests for Bacteria That Grow Aerobically; Approved Standard-10th Edition. Clinical and Laboratory Standards Institute, Wayne, Pa.
# [4] = test system: P. aeruginosa; experiment: MIC, modified CLSI broth microdilution in CAA medium without or with […] human serum (Table 4); assay type: cell-based, Pseudomonas aeruginosa; for CAA/HuS MIC: CAA supplemented with 2.5% human serum
# From the text: 2015. […] Clinical and Laboratory Standards Institute, Wayne, Pa.
# [5] = test system: biofilms formed by P. aeruginosa strain ATCC 17646; conditions: strain ATCC 17646 biofilm
# Experimental: Biofilms are then washed and treated with e.g., a 2-fold dilution series of the lysin in TSBg at e.g., 37° C. for 24 hours. After treatment, wells are washed, air-dried at e.g., 37° C. and stained with e.g., 0.05% crystal violet for 10 minutes.
# [6] = test system: P. aeruginosa strain WC-453; experiment: Time-kill assay in HEPES or CAA with 25% human serum (Tables 7, 8); assay type: cell-based, Pseudomonas aeruginosa
# Experimental: Exponential phase bacteria were then pelleted and resuspended in 1/5 culture volume of 25 mM HEPES, pH 7.4 before a final adjustment to an optical density corresponding to a McFarland value of 0.5. […] All treatments were incubated at 37° C. with aeration. At time points before the addition of lysin (or buffer control) and at 1 hour and 3 hours intervals thereafter, culture samples were removed for quantitative plating on CAA agar plates.
molecule,measurement,setting,value
GN156: GPRRPRRPGRRAPV introduced at the N terminus of GN4 (SEQ ID NO: 126) (protein) GPRRPRRPGRRAPVRTSQRGIDLIKSFEGLRLSAYQDSVGVWTIGYGTTRGVTRYMTITVEQAERMLSNDIQRFEPELDRLAKVPLNQNQWDALMSFVYNLGAANLASSTLLKLLNKGDYQGAADQFPRWVNAGGKRLDGLVKRRAAERALFLEPLS,Fold Increase (MIC) in presence of cations,[1]; 25% CAA + […] CaCl2 (high),1 fold
same,Fold Increase (MIC) in presence of cations,[1]; 25% CAA + […] CaCl2 (low),2 fold
same,Fold Increase (MIC) in presence of cations,[1]; 25% CAA + […] CaCl2 (medium),2 fold
same,Fold Increase (MIC) in presence of cations,[1]; 25% CAA + […] CaCl2 and […] MgCl2,2 fold
same,Fold Increase (MIC) in presence of cations,[1]; 25% CAA + […] MgCl2 (high),2 fold
same,Fold Increase (MIC) in presence of cations,[1]; 25% CAA + […] MgCl2 (low),2 fold
same,Fold Increase (MIC) in presence of cations,[1]; 25% CAA + […] MgCl2 (medium),2 fold
same,MIC in 25% CAA,[1],2 µg/mL
same,fold increase in MIC with SURVANTA,[2]; 0.09% SURVANTA,1 fold
same,fold increase in MIC with SURVANTA,[2]; 0.19% SURVANTA,1 fold
same,fold increase in MIC with SURVANTA,[2]; 1.56% SURVANTA,2 fold
same,fold increase in MIC with SURVANTA,[2]; 3.15% SURVANTA,2 fold
"GN316: lysin obtained from Klebsiella phage 0507-KN2-1 (SEQ ID NO: 22) (protein, (1)..(264) GN316 lysin) MAILKIGSKGLEVKNLQTSLNKIGFNLVADGIFGKATDNAVRAVQAGAGLVVDGIAGPKTMYAIRNAGESHQDHLTEADLIDAARELSVDLASIKAVNQVESRGTGFTKSGKIKTLFERHIMYKKLNAKFGQAKANALAQLYPTLVNAKAGGYTGGDAELERLHGAIAIDKDCAYESASYGLFQIMGFNCVICGYDNAEEMFNDFLTGERAQLMAFVKFIKADANLWKALKDKNWAEFARRYNGPAYAQNQYDTKLAAAYKSFS",activity in CAA supplemented with human serum (25%),[3],active
same,CAA MIC,[3]; CAA,16
same,CAA/HuS MIC,[3]; CAA supplemented with 25% human serum,<0.0625
same,MIC in 25% CAA,[1],4 µg/mL
same,CAA MIC,"[4]; CAA medium, no human serum",16000 µg/mL
same,CAA/HuS MIC,[4]; CAA supplemented with […] human serum,125 µg/mL
same,MBEC,[5],1 µg/mL
same,"bactericidal activity (CFU decrease of 3-Log10, 3 hours after the addition of lysin)","[6]; 10 μg/mL, enumerated lysins in CAA/HuS, general statement for HEPES and CAA/HuS",bactericidal activity
same,"CAA/HuS (Log10 CFU/mL), 1 hr","[6]; CAA + 25% human serum, lysin 10 μg/ml, 1 hr, WC-453",5.1 Log10 CFU/mL
same,"CAA/HuS (Log10 CFU/mL), 3 hr","[6]; CAA + 25% human serum, lysin 10 μg/ml, 3 hr, WC-453",<3.7 Log10 CFU/mL

# Reference: US20210324359A1, “USE OF GRAM-NEGATIVE LYSIN-ANTIMICROBIAL PEPTIDE (AMP) POLYPEPTIDE CONSTRUCTS IN TREATING ENDOCARDITIS” (priority 2020, published 2021)
